Legend:
[1] = target: LSD1, endogenous in LNCaP cells (human, UniProt O60341 1-852); test: Re-ChIP in LNCaP cells, first α-PKCβI then α-LSD1, KLK2 and FKBP5 promoters
Description: (§1) ChIP and Re-ChIP experiments were performed as described³. LNCaP cells were cultured for 15 min (ChIP) or 210 min (Re-ChIP) in the presence or absence of 1×10⁻⁸M R1881 as indicated. Three days before harvesting, cells were transfected with siRNA (control for PKCβI: 5′-[…]-3′(SEQ ID NO 3); PKCβI: 5′-[…]-3′ (SEQ ID NO 4) (FIG. 3 b, c, f-i); control for PRK1: 5′-[…]-3′ (SEQ ID NO 14); PRK1: 5′-[…]-3′ (SEQ ID NO: 15) (FIG. 3 d, e); Invitrogen) using RNAifect (Qiagen) following the manufacturer's instructions. Immunoprecipitation was performed with specific antibodies (α-AR #06-680 lot 33529 (Upstate Biotechnology), α-H3K4me1 #ab8895 lot 535654, α-H3T6ph #ab14102 lot 481643, α-H3 #ab1791 lot 172452, α-PKCβI S660ph #ab23513 lot 596904 (Abcam), α-PKCβI (C-16) #sc-209 lot 481643, (Santa Cruz), α-H3K4me2 #cs-035-100 lot A391001 (Diagenode), α-PRK1³, and α-LSD1²) on protein A-Sepharose 4B (GE-Healthcare). For PCR, 2 μl out of 50 μl DNA extract was used. PCR primers for FKBP5 (+351/+443), KLK2 (−343/−90), SCN1A, SCN2A, GAPDH, and U6 were described previously^{1, 2, 6, 11}.
Therefore, it was investigated whether PKCβI is present at AR target genes and phosphorylates H3T6 in vivo. To analyse first whether PKCβI binds to promoters of AR target genes, LNCaP cells were subjected to chromatin immunoprecipitation (ChIP) in the presence or absence of the AR agonist R1881. […]

[2] = target: Protein-kinase-C-related kinase 1 (PRK1), endogenous in LNCaP cells (human, UniProt Q16512 2-942); test: Re-ChIP in LNCaP cells, first α-PKCβI then α-PRK1
Description: as §1
It was recently shown by the inventors that PRK1 is a gatekeeper for regulation of AR target gene expression³. PRK1 controls multiple processes during AR-dependent transcription, such as transition from the RNA polymerase II pre-initiation to the initiation complex and demethylation at lysine 9 of histone H3 (H3K9)³. […]

Chain of Protein-kinase-C-related kinase 1 (PRK1), endogenous in LNCaP cells (Q16512 2-942 limits assumed): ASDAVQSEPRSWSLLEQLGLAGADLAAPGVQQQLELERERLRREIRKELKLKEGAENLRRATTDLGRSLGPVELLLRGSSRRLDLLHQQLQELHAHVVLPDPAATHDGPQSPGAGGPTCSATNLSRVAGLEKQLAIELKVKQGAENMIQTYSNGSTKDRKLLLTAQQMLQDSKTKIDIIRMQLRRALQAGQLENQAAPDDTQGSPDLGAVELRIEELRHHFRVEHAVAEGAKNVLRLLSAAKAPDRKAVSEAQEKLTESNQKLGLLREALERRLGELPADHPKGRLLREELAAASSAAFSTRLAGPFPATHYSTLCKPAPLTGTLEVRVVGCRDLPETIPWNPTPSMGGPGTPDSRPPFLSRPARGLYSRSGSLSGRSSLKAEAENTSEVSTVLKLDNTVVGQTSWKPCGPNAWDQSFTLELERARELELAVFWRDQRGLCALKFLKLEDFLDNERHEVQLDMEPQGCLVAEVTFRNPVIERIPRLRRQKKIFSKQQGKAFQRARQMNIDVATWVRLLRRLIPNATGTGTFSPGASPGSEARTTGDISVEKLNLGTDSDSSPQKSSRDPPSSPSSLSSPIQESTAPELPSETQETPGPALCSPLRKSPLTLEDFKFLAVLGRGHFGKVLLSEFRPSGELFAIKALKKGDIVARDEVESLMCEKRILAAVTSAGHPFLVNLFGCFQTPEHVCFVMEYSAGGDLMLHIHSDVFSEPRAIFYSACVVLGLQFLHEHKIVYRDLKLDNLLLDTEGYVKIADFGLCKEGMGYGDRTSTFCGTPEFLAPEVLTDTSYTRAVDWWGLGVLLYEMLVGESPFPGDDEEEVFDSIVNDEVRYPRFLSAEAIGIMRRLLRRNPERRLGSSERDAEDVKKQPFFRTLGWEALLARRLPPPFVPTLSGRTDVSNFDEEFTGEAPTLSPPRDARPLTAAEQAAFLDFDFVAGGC

binding result [1]: binds
binding result [2]: binds
B1: protein kinase C beta 1 (PKCβI), endogenous in LNCaP cells (enzyme)
chain: not shown
notes: here the endogenous protein on chromatin of LNCaP human prostate cancer cells; also called protein kinase C βI; PKCβ1

Reference: patent US20120329854A1 (UNIVERSIT TSKLINIKUM FREIBURG, published 2012)
